Results published in WO2019194217A1.

Target: active IL-18 protein (human IL-18, positions 37 to 193), expressed and purified in E. coli (human) (UniProt Q14116)
Assay: capillary western immunoassay (Wes), primary antibody at 1:25 dilution (16 μg/mL)

Sequence of UniProt Q14116 (Q14116 37-193 limits assumed): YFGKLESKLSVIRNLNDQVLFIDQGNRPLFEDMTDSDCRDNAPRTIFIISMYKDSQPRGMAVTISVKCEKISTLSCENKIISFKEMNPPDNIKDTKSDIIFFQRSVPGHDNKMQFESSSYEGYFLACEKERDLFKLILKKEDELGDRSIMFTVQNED

concentration of IL-18 protein detectable: 100 ng/mL
Substance: commercially available anti-IL-18 antibody D043-3: clone 25-2G
